Test results: patent CN116284393A (BEIJING DONGFANG BIOTECH CO LTD, dated 2023)

Tests used:
[1] = biological target: T1, 人单核细胞白血病细胞(THP-1)表面LILRB4 (human, UniProt Q8NHJ6 22-448); test: cell-based or functional assay
[2] = biological target: T1, 人单核细胞白血病细胞(THP-1)表面LILRB4; test: flow cytometry competition on THP-1 cells, competitor FITC-labelled ApoE 0.4μg/mL
[3] = biological target: T1, 人单核细胞白血病细胞(THP-1)表面LILRB4; test: flow cytometry on THP-1 cells, FITC goat anti-mouse IgG
LILRB4抗原 (人LILRB4蛋白胞外段) [4] = biological target: T2, LILRB4抗原 (人LILRB4蛋白胞外段) (human, UniProt Q8NHJ6 22-259); test: ELISA, coated LILRB4, Goat Anti-Mouse IgG-HRP
T2 construct: extracellular domain; Made in house from a synthesised gene

LILRA4 [5] = biological target: T3, LILRA4 (UniProt P59901 24-446, limits assumed); test: ELISA, coated protein 100ng/well
LILRA1 [6] = biological target: T4, LILRA1 (UniProt O75019 17-461, limits assumed); test: ELISA, coated protein 100ng/well
LILRB5 [7] = biological target: T5, LILRB5 (UniProt O75023 24-458, limits assumed); test: ELISA, coated protein 100ng/well
LILRA6 [8] = biological target: T6, LILRA6 (UniProt Q6PI73 24-447, limits assumed); test: ELISA, coated protein 100ng/well
LILRB2 [9] = biological target: T7, LILRB2 (UniProt Q8N423 22-460, limits assumed); test: ELISA, coated protein 100ng/well
LILRA5 [10] = biological target: T8, LILRA5 (UniProt A6NI73 42-268, limits assumed); test: ELISA, coated protein 100ng/well
LILRB1 [11] = biological target: T9, LILRB1 (UniProt Q8NHL6 24-461, limits assumed); test: ELISA, coated protein 100ng/well
LILRA2 [12] = biological target: T10, LILRA2 (UniProt Q8N149 24-449, limits assumed); test: ELISA, coated protein 100ng/well
LILRB3 [13] = biological target: T11, LILRB3 (UniProt O75022 24-443, limits assumed); test: ELISA, coated protein 100ng/well
LILRA3 [14] = biological target: T12, LILRA3 (UniProt Q8N6C8 24-439); test: ELISA, coated protein 100ng/well
LILRA4 [15] = biological target: T3, LILRA4; test: ELISA, coated protein, antibody at 50μg/mL
LILRA1 [16] = biological target: T4, LILRA1; test: ELISA, coated protein, antibody at 50μg/mL
LILRB5 [17] = biological target: T5, LILRB5; test: ELISA, coated protein, antibody at 50μg/mL
LILRA6 [18] = biological target: T6, LILRA6; test: ELISA, coated protein, antibody at 50μg/mL
LILRB2 [19] = biological target: T7, LILRB2; test: ELISA, coated protein, antibody at 50μg/mL
LILRA5 [20] = biological target: T8, LILRA5; test: ELISA, coated protein, antibody at 50μg/mL
LILRB1 [21] = biological target: T9, LILRB1; test: ELISA, coated protein, antibody at 50μg/mL
LILRA2 [22] = biological target: T10, LILRA2; test: ELISA, coated protein, antibody at 50μg/mL
LILRB3 [23] = biological target: T11, LILRB3; test: ELISA, coated protein, antibody at 50μg/mL
LILRB4抗原 (人LILRB4蛋白胞外段) [24] = biological target: T2, LILRB4抗原 (人LILRB4蛋白胞外段); test: ELISA, coated protein, antibody at 50μg/mL
LILRA3 [25] = biological target: T12, LILRA3; test: ELISA, coated protein, antibody at 50μg/mL

T9 sequence (Q8NHL6 24-461 limits assumed): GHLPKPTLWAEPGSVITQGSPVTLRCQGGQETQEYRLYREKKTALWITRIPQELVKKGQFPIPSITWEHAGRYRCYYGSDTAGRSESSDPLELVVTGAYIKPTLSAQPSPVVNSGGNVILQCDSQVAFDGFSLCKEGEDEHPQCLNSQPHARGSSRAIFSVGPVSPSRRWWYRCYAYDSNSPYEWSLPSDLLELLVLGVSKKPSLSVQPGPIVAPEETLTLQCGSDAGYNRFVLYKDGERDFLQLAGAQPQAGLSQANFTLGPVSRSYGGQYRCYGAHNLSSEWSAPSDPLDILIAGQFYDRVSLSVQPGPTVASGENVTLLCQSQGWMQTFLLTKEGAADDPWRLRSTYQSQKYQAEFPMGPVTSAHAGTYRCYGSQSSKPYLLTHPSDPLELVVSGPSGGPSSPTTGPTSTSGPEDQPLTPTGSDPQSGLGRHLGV
T5 sequence (O75023 24-458 limits assumed): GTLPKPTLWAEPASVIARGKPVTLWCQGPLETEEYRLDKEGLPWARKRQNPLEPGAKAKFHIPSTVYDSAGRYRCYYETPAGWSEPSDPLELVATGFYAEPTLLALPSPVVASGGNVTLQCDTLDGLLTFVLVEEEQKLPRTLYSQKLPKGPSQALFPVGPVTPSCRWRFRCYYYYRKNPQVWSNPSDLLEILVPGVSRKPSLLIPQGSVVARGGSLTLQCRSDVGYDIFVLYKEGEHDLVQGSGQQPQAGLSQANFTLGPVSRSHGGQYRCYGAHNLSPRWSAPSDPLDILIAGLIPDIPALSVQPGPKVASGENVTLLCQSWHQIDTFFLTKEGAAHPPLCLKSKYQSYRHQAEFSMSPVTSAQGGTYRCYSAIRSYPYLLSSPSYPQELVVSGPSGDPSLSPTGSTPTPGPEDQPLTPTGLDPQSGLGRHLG
T7 sequence (Q8N423 22-460 limits assumed): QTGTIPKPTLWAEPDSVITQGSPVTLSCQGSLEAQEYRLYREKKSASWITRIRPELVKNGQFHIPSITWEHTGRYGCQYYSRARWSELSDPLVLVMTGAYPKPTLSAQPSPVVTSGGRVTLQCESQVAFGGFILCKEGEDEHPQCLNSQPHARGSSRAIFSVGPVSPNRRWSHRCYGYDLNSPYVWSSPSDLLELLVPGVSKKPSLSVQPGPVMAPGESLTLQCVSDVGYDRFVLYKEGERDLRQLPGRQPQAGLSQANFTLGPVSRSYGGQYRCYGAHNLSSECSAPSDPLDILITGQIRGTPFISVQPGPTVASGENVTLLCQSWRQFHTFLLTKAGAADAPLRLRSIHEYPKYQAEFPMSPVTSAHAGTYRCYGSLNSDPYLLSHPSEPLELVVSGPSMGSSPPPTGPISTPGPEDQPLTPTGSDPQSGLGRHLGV
T3 sequence (P59901 24-446 limits assumed): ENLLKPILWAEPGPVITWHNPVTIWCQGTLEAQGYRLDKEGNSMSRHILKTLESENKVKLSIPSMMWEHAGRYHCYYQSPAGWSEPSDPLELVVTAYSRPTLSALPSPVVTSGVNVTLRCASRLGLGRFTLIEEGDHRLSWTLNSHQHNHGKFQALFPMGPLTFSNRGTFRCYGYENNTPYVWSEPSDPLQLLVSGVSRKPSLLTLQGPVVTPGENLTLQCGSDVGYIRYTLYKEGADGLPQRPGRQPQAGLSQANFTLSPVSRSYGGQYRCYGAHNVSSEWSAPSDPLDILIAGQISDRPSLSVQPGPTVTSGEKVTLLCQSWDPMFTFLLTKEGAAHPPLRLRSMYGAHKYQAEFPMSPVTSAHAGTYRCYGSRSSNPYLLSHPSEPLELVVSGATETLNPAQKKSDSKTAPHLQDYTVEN
T6 sequence (Q6PI73 24-447 limits assumed): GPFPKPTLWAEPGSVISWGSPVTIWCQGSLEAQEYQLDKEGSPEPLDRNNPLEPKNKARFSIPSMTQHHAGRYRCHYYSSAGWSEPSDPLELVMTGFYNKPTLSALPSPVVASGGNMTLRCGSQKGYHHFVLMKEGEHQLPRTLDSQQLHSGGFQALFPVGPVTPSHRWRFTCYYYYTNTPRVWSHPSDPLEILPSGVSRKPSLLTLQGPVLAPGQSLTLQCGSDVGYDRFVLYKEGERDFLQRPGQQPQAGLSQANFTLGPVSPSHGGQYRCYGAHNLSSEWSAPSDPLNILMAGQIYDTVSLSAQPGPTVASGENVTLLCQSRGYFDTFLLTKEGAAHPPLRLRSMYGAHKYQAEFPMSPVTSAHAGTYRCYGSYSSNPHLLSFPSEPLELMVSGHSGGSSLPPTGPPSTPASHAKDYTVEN
T4 sequence (O75019 17-461 limits assumed): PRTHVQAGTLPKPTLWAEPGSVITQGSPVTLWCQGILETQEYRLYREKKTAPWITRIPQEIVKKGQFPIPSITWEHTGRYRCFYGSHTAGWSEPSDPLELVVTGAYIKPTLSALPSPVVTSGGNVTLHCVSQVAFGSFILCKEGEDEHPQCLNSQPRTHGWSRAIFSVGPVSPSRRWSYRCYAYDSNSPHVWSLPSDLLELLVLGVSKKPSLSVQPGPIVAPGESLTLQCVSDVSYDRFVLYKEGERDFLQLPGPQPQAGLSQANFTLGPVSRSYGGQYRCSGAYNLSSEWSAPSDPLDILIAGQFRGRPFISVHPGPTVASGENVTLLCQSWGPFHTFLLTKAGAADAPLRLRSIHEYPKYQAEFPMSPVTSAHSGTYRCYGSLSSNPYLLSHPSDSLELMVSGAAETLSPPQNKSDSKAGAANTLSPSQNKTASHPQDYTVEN
T12 sequence (Q8N6C8 24-439 limits assumed): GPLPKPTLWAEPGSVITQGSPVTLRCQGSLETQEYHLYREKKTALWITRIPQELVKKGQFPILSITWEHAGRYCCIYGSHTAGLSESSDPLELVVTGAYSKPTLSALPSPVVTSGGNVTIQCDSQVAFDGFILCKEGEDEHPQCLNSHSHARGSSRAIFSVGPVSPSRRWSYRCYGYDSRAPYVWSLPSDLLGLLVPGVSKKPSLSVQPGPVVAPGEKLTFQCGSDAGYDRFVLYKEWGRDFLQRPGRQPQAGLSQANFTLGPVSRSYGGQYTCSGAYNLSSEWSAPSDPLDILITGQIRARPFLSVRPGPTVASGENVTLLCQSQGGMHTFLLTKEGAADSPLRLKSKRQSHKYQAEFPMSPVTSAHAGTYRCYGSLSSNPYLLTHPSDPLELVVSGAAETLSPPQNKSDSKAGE
T11 sequence (O75022 24-443 limits assumed): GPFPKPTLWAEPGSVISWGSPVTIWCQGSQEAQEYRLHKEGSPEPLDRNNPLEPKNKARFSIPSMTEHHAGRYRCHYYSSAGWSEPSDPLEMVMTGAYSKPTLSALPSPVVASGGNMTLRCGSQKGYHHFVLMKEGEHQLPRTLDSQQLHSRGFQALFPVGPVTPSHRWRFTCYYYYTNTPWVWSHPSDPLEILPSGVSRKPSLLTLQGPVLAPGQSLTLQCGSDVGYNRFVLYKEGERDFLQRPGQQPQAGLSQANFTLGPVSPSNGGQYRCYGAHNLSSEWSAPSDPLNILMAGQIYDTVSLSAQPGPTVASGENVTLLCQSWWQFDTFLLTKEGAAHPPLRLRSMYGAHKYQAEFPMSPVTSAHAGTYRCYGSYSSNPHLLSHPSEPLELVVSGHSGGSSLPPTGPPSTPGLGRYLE
T8 sequence (A6NI73 42-268 limits assumed): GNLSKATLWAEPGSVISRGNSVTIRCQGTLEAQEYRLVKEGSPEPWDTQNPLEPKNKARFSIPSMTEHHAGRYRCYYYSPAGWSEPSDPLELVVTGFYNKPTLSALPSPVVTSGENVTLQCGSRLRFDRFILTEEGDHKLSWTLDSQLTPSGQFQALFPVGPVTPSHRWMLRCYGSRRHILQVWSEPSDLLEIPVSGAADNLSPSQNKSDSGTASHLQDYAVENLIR
T10 sequence (Q8N149 24-449 limits assumed): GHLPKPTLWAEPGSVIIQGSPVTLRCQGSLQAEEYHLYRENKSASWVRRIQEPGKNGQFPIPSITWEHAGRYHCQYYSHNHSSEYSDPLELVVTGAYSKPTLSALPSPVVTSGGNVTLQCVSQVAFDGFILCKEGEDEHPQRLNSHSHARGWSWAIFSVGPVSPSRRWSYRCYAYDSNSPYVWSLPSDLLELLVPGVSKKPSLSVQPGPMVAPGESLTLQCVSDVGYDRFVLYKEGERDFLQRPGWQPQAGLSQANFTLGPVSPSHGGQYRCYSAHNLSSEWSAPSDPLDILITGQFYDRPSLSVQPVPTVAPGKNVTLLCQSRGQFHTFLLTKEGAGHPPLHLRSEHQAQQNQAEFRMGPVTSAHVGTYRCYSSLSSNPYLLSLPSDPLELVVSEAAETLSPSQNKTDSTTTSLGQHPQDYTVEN

B1: MG-Ⅰ 单克隆抗体 (mouse IgG1 / Ck full antibody) (antibody, V domains shown)
VH: EVKLEESGGGLVKPGGSLKLSCAASGFTFSSNTMSWVRQTPEKRLEWVATISSGGSYIYYRDSVKGRFTISRDNAKNTLYLQMSSLKSEDTAMYYCTSEGRSRDPYYYSMDYWGQGTSVTVSS
VL: DIVLTQTPLSLPVSLGDQASISCRSSQSLVHSNGNTYLHWYLQKPGQSPKLLIYKVSNRFSGVPDRFSGSGSGTDFTLKISRVEAEDLGVYFCSQSTHVPTFGAGTKLELKA
notes: also called 单克隆抗体MG-Ⅰ
- IC50(μg/mL), 抑制THP-1分泌ARG1 (arginase activity in supernatant, with 0.5μg/mL ApoE) [1]: 257 µg/mL
- IC50 [2]: 7.18 µg/mL
- EC50 [3]: 4.31 µg/mL
- EC50 (LILRB4抗原 (人LILRB4蛋白胞外段) [4]): 0.188 µg/mL
- binding result (LILRA4 [5]): no binding (tested: 50μg/mL)
- binding result (LILRA1 [6]): no binding (tested: 50μg/mL)
- binding result (LILRB5 [7]): no binding (tested: 50μg/mL)
- binding result (LILRA6 [8]): no binding (tested: 50μg/mL)
- binding result (LILRB2 [9]): no binding (tested: 50μg/mL)
- binding result (LILRA5 [10]): no binding (tested: 50μg/mL)
- binding result (LILRB1 [11]): no binding (tested: 50μg/mL)
- binding result (LILRA2 [12]): no binding (tested: 50μg/mL)
- binding result (LILRB3 [13]): no binding (tested: 50μg/mL)
- binding result (LILRA3 [14]): no binding (tested: 50μg/mL)
- OD 450nm/630nm (LILRA4 [15]): 0.077
- OD 450nm/630nm (LILRA1 [16]): 0.103
- OD 450nm/630nm (LILRB5 [17]): 0.176
- OD 450nm/630nm (LILRA6 [18]): 0.053
- OD 450nm/630nm (LILRB2 [19]): 0.04
- OD 450nm/630nm (LILRA5 [20]): 0.066
- OD 450nm/630nm (LILRB1 [21]): 0.045
- OD 450nm/630nm (LILRA2 [22]): 0.046
- OD 450nm/630nm (LILRB3 [23]): 0.05
- OD 450nm/630nm (LILRB4抗原 (人LILRB4蛋白胞外段) [24]): 2.72
- OD 450nm/630nm (LILRA3 [25]): 0.057
